Read-outs that look alike come from different tables or passages of the source.
What was measured:
[1] = biological target: T1, CDTbD3′ (Clostridioides difficile, strain not …)
T1 chain: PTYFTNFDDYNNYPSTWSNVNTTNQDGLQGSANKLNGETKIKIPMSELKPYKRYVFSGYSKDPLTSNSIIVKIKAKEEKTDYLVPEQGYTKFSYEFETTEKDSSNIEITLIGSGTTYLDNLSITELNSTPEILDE

[2] = biological target: T2, CDTb_(D1–D4) monomer (residues 43–876) (Clostridioides difficile, strain not …)
T2 chain: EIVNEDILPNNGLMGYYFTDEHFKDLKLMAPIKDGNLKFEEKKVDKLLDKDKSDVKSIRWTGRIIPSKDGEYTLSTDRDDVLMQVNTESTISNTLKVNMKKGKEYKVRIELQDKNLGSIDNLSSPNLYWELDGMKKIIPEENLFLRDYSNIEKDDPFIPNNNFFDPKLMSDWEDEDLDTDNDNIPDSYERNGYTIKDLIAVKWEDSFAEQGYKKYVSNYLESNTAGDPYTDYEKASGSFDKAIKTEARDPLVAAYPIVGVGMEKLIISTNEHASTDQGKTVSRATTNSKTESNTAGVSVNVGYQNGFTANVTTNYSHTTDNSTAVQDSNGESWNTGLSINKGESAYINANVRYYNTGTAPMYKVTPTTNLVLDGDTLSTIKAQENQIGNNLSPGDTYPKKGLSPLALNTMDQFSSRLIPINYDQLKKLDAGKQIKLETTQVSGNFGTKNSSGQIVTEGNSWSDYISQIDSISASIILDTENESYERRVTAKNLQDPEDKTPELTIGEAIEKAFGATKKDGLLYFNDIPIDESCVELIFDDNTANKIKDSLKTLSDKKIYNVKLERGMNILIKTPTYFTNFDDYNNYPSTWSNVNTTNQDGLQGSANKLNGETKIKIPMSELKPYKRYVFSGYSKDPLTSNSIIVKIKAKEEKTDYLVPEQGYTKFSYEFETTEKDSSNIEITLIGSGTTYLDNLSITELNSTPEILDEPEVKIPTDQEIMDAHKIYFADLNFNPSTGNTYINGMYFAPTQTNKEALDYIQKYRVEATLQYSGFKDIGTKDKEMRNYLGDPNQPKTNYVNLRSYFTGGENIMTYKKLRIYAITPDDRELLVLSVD

[3] = biological target: T3, activated monomeric CDTb (75 kDa-activated monomer) (Clostridioides difficile); test: cell-based or functional assay
T3 chain: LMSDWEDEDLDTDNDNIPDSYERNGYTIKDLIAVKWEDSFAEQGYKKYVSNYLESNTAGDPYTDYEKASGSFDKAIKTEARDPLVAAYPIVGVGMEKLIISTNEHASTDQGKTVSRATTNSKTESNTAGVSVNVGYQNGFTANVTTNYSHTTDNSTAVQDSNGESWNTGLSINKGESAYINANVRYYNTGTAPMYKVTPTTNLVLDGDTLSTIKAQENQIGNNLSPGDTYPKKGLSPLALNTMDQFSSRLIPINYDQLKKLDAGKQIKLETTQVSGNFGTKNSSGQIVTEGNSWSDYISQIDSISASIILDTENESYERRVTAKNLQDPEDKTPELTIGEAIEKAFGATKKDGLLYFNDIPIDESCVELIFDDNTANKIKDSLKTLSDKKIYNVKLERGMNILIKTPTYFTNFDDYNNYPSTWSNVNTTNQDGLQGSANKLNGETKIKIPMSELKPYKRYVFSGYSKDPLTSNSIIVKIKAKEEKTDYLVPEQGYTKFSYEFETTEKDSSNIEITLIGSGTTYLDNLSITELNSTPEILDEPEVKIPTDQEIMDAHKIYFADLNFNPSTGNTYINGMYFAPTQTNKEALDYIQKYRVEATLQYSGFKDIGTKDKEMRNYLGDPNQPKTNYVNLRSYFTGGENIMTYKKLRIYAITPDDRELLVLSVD

[4] = biological target: T4, CDTbD4 (760–876) (Clostridioides difficile, strain not …, UniProt O32739); test: SPR; Carterra LSA^XT, SAHC30M chip, 25 °C; biotinylated Nbs captured at eight densities; CDTb constructs injected at 0.3–300 nM (fourfold dilutions) without regeneration; HBS-T (10 mM HEPES pH 7.4, 150 mM NaCl, 0.05% Tween-20) with 0.5 mg/ml BSA; one-to-one kinetics model; conditions: both partners purified
T4 construct: also called domain 4

[5] = biological target: T5, native CDTb protein in cecal contents of mice infected with C. difficile R20291 (Clostridioides difficile R20291, UniProt A0A9R0BM17, strain); test: ELISA; sandwich ELISA on cecal material of mice infected with R20291: biotinylated detection Nb on the captured native CDTb; conditions: one partner purified
T5 construct: CDTb made by C. difficile R20291 during infection of mice; source: endogenous, C. difficile R20291, in cecal material of infected mice

[6] = biological target: T2, CDTb_(D1–D4) monomer (residues 43–876); test: SPR; Carterra LSA^XT, SAHC30M chip, 25 °C; biotinylated Nbs captured at eight densities; CDTb constructs injected at 0.3–300 nM (fourfold dilutions) without regeneration; HBS-T (10 mM HEPES pH 7.4, 150 mM NaCl, 0.05% Tween-20) with 0.5 mg/ml BSA; one-to-one kinetics model; conditions: both partners purified
[7] = biological target: T6, CDTb_(D2–D3′) (210–749) (Clostridioides difficile, strain not …, UniProt O32739); test: SPR; […] (10 mM HEPES pH 7.4, 150 mM NaCl, 0.05% Tween-20) with 0.5 mg/ml BSA; […]; conditions: both partners purified
[8] = biological target: T1, CDTbD3′; test: SPR; Carterra LSA^XT, SAHC30M chip, 25 °C; biotinylated Nbs captured at eight densities; CDTb constructs injected at 0.3–300 nM (fourfold dilutions) without regeneration; HBS-T (10 mM HEPES pH 7.4, 150 mM NaCl, 0.05% Tween-20) with 0.5 mg/ml BSA; one-to-one kinetics model; conditions: both partners purified
[9] = biological target: T5, native CDTb protein in cecal contents …; test: ELISA; sandwich ELISA on cecal material of mice infected with R20291 (diluted to 10 mg/ml in PBS-T + 2% BSA): native CDTb bound by the coated capture Nb; conditions: one partner purified
[10] = biological target: T3, activated monomeric CDTb (75 …); test: ELISA; sandwich ELISA: nonbiotinylated capture Nb coated (200 ng/well), purified CDTb (activated monomer or heptameric sample) in PBS-T + 2% BSA, biotinylated detection Nb (50 ng/well), streptavidin-HRP; room temperature; conditions: both partners purified
[11] = biological target: T7, heptameric CDTb (Clostridioides difficile, strain not …); test: as above; conditions: both partners purified
T7 construct: the ELISA text says only heptameric CDTb; also called CDTb heptamer; CDTb oligomers
T7 chain: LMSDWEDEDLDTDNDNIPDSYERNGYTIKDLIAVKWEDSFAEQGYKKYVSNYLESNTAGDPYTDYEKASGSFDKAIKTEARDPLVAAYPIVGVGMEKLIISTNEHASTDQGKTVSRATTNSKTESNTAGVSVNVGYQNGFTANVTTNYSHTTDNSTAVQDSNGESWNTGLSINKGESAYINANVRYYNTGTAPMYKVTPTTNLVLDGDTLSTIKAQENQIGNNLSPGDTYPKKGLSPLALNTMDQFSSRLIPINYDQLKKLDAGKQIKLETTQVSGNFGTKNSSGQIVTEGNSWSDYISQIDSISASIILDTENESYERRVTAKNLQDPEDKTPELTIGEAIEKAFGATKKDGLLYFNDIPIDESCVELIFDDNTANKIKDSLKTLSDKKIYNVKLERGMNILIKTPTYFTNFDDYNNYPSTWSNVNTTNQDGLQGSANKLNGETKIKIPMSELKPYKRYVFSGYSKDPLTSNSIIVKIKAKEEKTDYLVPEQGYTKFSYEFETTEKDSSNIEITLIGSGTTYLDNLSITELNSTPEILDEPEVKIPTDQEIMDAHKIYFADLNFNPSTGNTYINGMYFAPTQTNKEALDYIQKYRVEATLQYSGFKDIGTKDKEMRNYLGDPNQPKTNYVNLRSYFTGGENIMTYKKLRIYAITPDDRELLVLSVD

[12] = biological target: T1, CDTbD3′; test: SPR; Carterra LSA^XT, SAHC30M chip, 25 °C; biotinylated Nbs captured at eight densities; CDTb constructs injected at 0.3–300 nM (fourfold dilutions) without regeneration; HBS-T (10 mM HEPES pH 7.4, 150 mM NaCl, 0.05% Tween-20) with 0.5 mg/ml BSA; one-to-one kinetics model; conditions: both partners purified
[13] = biological target: T6, CDTb_(D2–D3′) (210–749); test: SPR; […] (10 mM HEPES pH 7.4, 150 mM NaCl, 0.05% Tween-20) with 0.5 mg/ml BSA; […]; conditions: both partners purified; remark: listed apart in the source
[14] = biological target: T4, CDTbD4 (760–876); test: SPR; Carterra LSA^XT, SAHC30M chip, 25 °C; biotinylated Nbs captured at eight densities; CDTb constructs injected at 0.3–300 nM (fourfold dilutions) without regeneration; HBS-T (10 mM HEPES pH 7.4, 150 mM NaCl, 0.05% Tween-20) with 0.5 mg/ml BSA; one-to-one kinetics model; conditions: both partners purified; remark: listed apart in the source
[15] = biological target: T2, CDTb_(D1–D4) monomer (residues 43–876); test: as above; conditions: both partners purified

B1: C1G1 (VHH)
VHH: QVQLQESGGGLVQPGGSLTLSCAASGSIGSGSVMSWYRQAPGKERELVAQESGGRLRSYAKSVMGRFTISRDNSNNTVTLQMNNLKTDDTAIYYCHLVQFSGRYWGHGTQVTGS
[1]
  binding result: binds
[2]
  binding result: binds

B2: Nb H12 (VHH)
VHH: QVQLQESGGGLVQPGGSLRLSCAASGDIFSFYTMGWYRQAPGKQRELVATITSPGTTNYADSVKGRFTISRDNAKNMVYLQMTSLKPEDTAVYYCNADRILTTDPQFKYWGQGTQVTVSS
notes: also called C1H12; source: Expi293F, transfected, purified from supernatant (TALON resin)
[3]
  EC50 of neutralization of CDT-induced rounding of Vero-GFP cells (1 nM CDTa + 7 nM activated monomeric CDTb, Nb 0.6–100 nM, 3 h postintoxication): ~6 nM
[4]
  Kd: 0.042 nM
  koff: 0.00013 s⁻¹
  kon: 3.1e+06 M⁻¹ s⁻¹
[5]
  binding result: binds
[6]
  Kd: 0.05 nM
  koff: 6.7e-05 s⁻¹
  kon: 1.4e+06 M⁻¹ s⁻¹
[7]
  binding result: no binding
[8]
  binding result: no binding

B3: Nb A9 (VHH)
VHH: QVQLQESGGGLVQPGGSLRLSCTSSTNMLEFTAVAWWRQAPGKQRDLLAVITRAGVPNYADSKGRFAISRDNAKNTVDLLINTLEPDDTAVYTCNARTSGNINYWGQGTQVTVSS
notes: also called C1A9; source: Expi293F, transfected, purified from supernatant (TALON resin)
[9]
  binding result: binds
[10]
  binding result: binds
[11]
  binding result: binds
[6]
  Kd: 0.024 nM
  koff: 3.2e-05 s⁻¹
  kon: 1e+06 M⁻¹ s⁻¹
[12]
  Kd: ≤ 0.031 nM
  koff: ≤ 1e-05 s⁻¹
  kon: 330000 M⁻¹ s⁻¹
[13]
  Kd: 0.02 nM
  koff: 1.4e-05 s⁻¹
  kon: 710000 M⁻¹ s⁻¹
[14]
  binding result: no binding

B4: Nb H8 (VHH)
VHH: QVQLQESGGGLVQPGRSLRLSCEASDFSLNTFGAGWFRQVPGKEREGVSCISPSNSSTYYADSVKGRFTISRDNAKNTIYLQMNSLKPEDTGVYFCAARPITSAQALCTLLVSDSFTSWGQGTQVTVSS
notes: also called C1H8; source: Expi293F, transfected, purified from supernatant (TALON resin)
[10]
  binding result: binds
[4]
  Kd: 0.63 nM
  koff: 0.00083 s⁻¹
  kon: 1.4e+06 M⁻¹ s⁻¹
[6]
  Kd: 1.6 nM
  koff: 0.00089 s⁻¹
  kon: 560000 M⁻¹ s⁻¹
[7]
  binding result: no binding
[8]
  binding result: no binding
[15]
  Kd: 1.9 nM

B5: Nb C6 (VHH)
VHH: QVQLQESGGGLVEPGGSLRLSCVASGIVVASSTMSWYRQAPGKQRELVAQIFSGGNTNYRDSVRGRFTISKDNAKNTAYLQMDNLEPDDTAVYYCYARGFWGQGTQVTVSS
notes: also called C1C6; source: Expi293F, transfected, purified from supernatant (TALON resin)
[10]
  binding result: binds
[5]
  binding result: binds
[6]
  Kd: 0.018 nM
  koff: 1.4e-05 s⁻¹
  kon: 790000 M⁻¹ s⁻¹
[13]
  Kd: 0.035 nM
  koff: 4.4e-05 s⁻¹
  kon: 1.3e+06 M⁻¹ s⁻¹
[14]
  binding result: no binding
[8]
  binding result: no binding

B6: Nb G2 (VHH)
VHH: QVQLQESGGGLVQPGGSLTLSCKASGIVFSTHTLAWYRQAPGKHRNVLAVITSAGIPNYDTDLKGRFTISRDNAKNTVYLQMNSLEPEDTAVYYCNARGPHPTVTGTTANYWGQGTQVTVSS
notes: also called C1G2; source: Expi293F, transfected, purified from supernatant (TALON resin)
[9]
  binding result: binds
[10]
  binding result: binds
[6]
  Kd: ≤ 0.029 nM
  koff: ≤ 1e-05 s⁻¹
  kon: 380000 M⁻¹ s⁻¹
[12]
  Kd: 0.18 nM
  koff: 4.1e-05 s⁻¹
  kon: 240000 M⁻¹ s⁻¹
[13]
  Kd: ≤ 0.022 nM
  koff: ≤ 1e-05 s⁻¹
  kon: 480000 M⁻¹ s⁻¹
[14]
  binding result: no binding
